# Assay results reported in the supplement of paper PMC9170038.
# Tested on: MS2 coat protein
# Assay: apparent KD of MS2 coat protein; designed switch direction (-1 OFF switch, 1 ON switch): -1; higher = weaker reporter binding
# Outline: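 Normalised cluster fluorescence was curve-fitted, and each design's median over clusters is its apparent KD. Before this, SNAP-549-labelled MS2 coat protein was titrated from 0.7 or 1.5 nM, doubling to 3 µM, over RNA switches transcribed on Illumina chips by stalled E. coli RNA polymerase. Titrations had no input, 200 uM small-molecule ligand, or an oligonucleotide input, and steps lasted 0.8–1.5 h (lowest) to 10–20 min (highest).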
# [1] = Eterna round: R95, input ligand: microRNA oligo, concentration not stated
# [2] = input ligand: microRNA oligo, concentration not stated
# [3] = Eterna round: R95, input ligand: FMN 200 uM
# [4] = Eterna round: R95, input ligand: none
Sequence,apparent KD of MS2 coat protein (input ligand: FMN 200 uM) [nM],apparent KD of MS2 coat protein (input ligand: none) [nM],apparent KD of MS2 coat protein [1] [nM],apparent KD of MS2 coat protein [2] [nM],apparent KD of MS2 coat protein [3] [nM],apparent KD of MS2 coat protein [4] [nM]
"AGUUGGUCAGGAUAUUCUAUUAAUUACAUGAGGAUCACCCAUGUGAAUGGACAAGGGUGUGAAGAAGGGACUGGCG [Omei Ex5 A17c] (Eterna round: R97, puzzle: Exclusion 5)",692,1780,,,,
GUCAUGUAAGGAUAUCUUACAUGUGACUUCGGUCACUGUCGAGAGAAGGUACAUGAGGAUCACCCAUGUUCGAC [Ex4-3: 53] (puzzle: Exclusion 4),,,15.6,,,
"GUCCUGGAAUAUCAGAAGCACAUGAGGAUCACCCAUGUCAUGGGUAGAUCAAUAAAUAAAGAUACUGCUCGUCUUAU [Cac sensor turnoff var1 sub4] (Eterna round: R97, puzzle: Sensor, turn-off variant 1)",837,228,,,,
"GGGAAGAACCAACAAGCAAACAUGAGGAUCACCCAUGUUAGUGGUUCGAAUGUAAAGAUUAAGAGAGCUCGUCUUAU [AK-miRNA-r3-9] (Eterna round: R97, puzzle: Sensor, turn-off variant 1)",18,20.2,,,,
"UCGAUGUGAGGAUAUAUUUUUAUUAGUCCUUAUGUUUUAUAACUUGAGGAUCACCCAAGUAGAAGGCGCGACGU [JR_Ex2_Sub061] (Eterna round: R97, puzzle: Exclusion 2)",32.6,34.6,,,,
"UGUUGUCGCGCAGGAUAUGAGGAUCACCCAUAUAAGGAUAUCGAAAGAGAAGUUCUGAGGAUCACCCAGAAGGGCGGGACAACU [pwkr exNG2 2xF5 2xFMN.32] (Eterna round: R96, puzzle: Exclusion NG 2)",389,58.5,,52.6,,
"GUUUUCAGACGGAGAUCCUACAUGAGGAUCACCCAUGUCUCACAAGCUUUUUGCUCGUCUUAUACUCCUCUGUUCUC [Elimod 42 - Jieux - Sensor, turn-off variant 1] (Eterna round: R97, puzzle: Sensor, turn-off variant 1)",83.5,106,,,,
AAUAACAGAGGAUAUACUAUUUUAUGUGUUUAUUGUUUUGAACAUGAGGAUCACCCAUGUAGAAGGCUGAUUGA [JMF 78] (puzzle: Exclusion 2),,,40.7,,,
"GUACUGACAGGAUAUACAUGAGGAUCACCCAUGUGCCCUUAAAGAUGCAAAGCAUCUAGUAGAAGGGUCUGUAC [Omei Ex3 Model Bachelor's Dilema v23] (Eterna round: R97, puzzle: Exclusion 3)",66.1,33.4,,,,
ACUAGAUGAGGAUAUGCAUAUUUUCGUGUUCUUCUAGAUUAACAUGAGGAUCACCCAUGUAGAAGGCGUCUGGC [Exclusion 2 - 20] (puzzle: Exclusion 2),,,18,,,
"GGAUCGAAAGUGAGGAUAUGCUGGUCCUUGGAUCAGCAGAAGGCACAUGAGGAUCACCCAUGUGGGAACGGUCC [Eli bmx4 4.46] (Eterna round: R97, puzzle: Brourd's mod of Exclusion 4)",1440,298,,,,
GCCAGAGCAGGAUAUUCAAUAAUUCACAUGAGGAUCACCCAUGUCCAGCGAAAGCUAGGAGGAGAAGGGCUCUGGC [Fiskers Ex 5 - 4] (puzzle: Exclusion 5),,,17.2,,15.2,17.8
"CAUUAUGUUGAGGAUAUGCACCAGCUCACUGACGCAGAAGGCGACACAUGAGGAUCACCCAUGUCAGUUCGCGA [salish99_ex6_r004_428] (Eterna round: R97, puzzle: Exclusion 6)",16.1,14.6,,,,
"AGAAACAGAGGAUAUCGCGGACAGCACAUGAGGAUCACCCAUGUGAUGCUCCGCGGGCCGCGAGAAGGCUGAAAUG [Rateatge] (Eterna round: R96, puzzle: Exclusion 5)",,,,11.2,,
"ACUCCUGAUGUUAGGAUAUCAGGCGCGACAGCGGAUGAGAAGGAACAUGAGGAUCACCCAUGUGGGCUUAUCAA [Reedonso] (Eterna round: R97, puzzle: Brourd's mod of Exclusion 4)",325,81.6,,,,
"AGUCAGGCGGUAGGAUAUCCAAACCGAGUGACCCUUUCAUAACAUGAGGAUCACCCAUGUCGGUGGGAGAAGGGCCGUAAGGCA [Mat - Exclusion NG 2 - Mod of JL - D66] (Eterna round: R96, puzzle: Exclusion NG 2)",127,56.6,,52.8,,
GAGGAACAUGAGGAUCACCCAUGUAAGGAUAUGCAUAGCGAGGUAGUAGAAGGUGAAGGCAGAAGGUACACGGA [JR_Exclu1_Sub076] (puzzle: Exclusion 1),,,34.2,,31.3,43.8
"AAUAAUGAUAAGGAUAUCACUAGCGAUAGCUAGUGAGAAGGUAUCACAUGAGGAUCACCCAUGUGUUCCAAUAA [Ex6/6-A4] (Eterna round: R97, puzzle: Exclusion 6)",35.2,17,,,,
"CCUCCCUGAGGAUAUCCACCCUCAUACAUGAGGAUCACCCAUGUUCAUCCGUGGGUACCCGGAGAAGGCAGAUCUC [Megrez-b] (Eterna round: R97, puzzle: Exclusion 5)",81,85.9,,,,
UUUAAAACAUAGGAUAUCGAAAUAAUCAUUUAACGAGAAGGAUGAACAUGAGGAUCACCCAUGUGGUAUCAUGG [Mat - Exclusion 6 - JL Mod - D18] (puzzle: Exclusion 6),,,230,,364,409
"UACGAAGAGUGAGGAUAUGUGCGACAAAGUUGCACAGAAGGCACAUGAGGAUCACCCAUGUAAGCUAGGUCGAAAGACCUAGCG [Omei Exc(NG)1 Av4] (Eterna round: R96, puzzle: Exclusion NG 1)",130,44.7,,21,,
"ACUGGGAGAGGAUAUACAUGAGGAUCACCCAUGUGAAAUUAUAGUGAGGAAAUGAAAAGUAGAAGGCUCUUAGA [Mod of Mat 14 - Jieux - Exclusion 3] (Eterna round: R97, puzzle: Exclusion 3)",151,68.4,,,,
CAGUACUGAGGAUAUACAUGAGGAUCACCCAUGUCCUAAAAGUAGGAUACUACUAUUAGUAGAAGGCAGUACUG [Fiskers Ex 3 828 mod 23] (puzzle: Exclusion 3),,,18.1,,,
"CAGUACUGAGGAUAUACAUGAGGAUCACCCAUGUGUCCUCUAUUAGGAAACUAGUUAUGUAGAAGGCAGUACUG [Omei Ex3 Mod of Eli 4.27 v10] (Eterna round: R97, puzzle: Exclusion 3)",1060,1050,,,,
"UUAUUAUAUGAAGGAUAUACUUAACAUGAGGAUCACCCAUGUGGUGUUGUGAGUGAGUGAGUUUAGUAGAAGGUCAAGUAUUUU [JMF's solution 51] (Eterna round: R96, puzzle: Exclusion NG 2)",417,341,,494,,
"UUAAUUAGCAGGCAAGAUCAUUACAUGAGGAUCACCCAUGUCGAGGAUAUCAGCUCGUUUAGAGCUGAGAAGGCGACAGCCUGC [ExNG3/13-A2] (Eterna round: R96, puzzle: Exclusion NG 3)",711,417,,289,,
